According to patent publication US9327008B2, “Cell-permeant peptide-based inhibitor of kinases” (Purdue Research Foundation, priority 2008, dated 2016):

Tests used:
Type in all cases: biochemical
[1] = molecular target: T1, CHK1 (Homo sapiens, UniProt O14757); test: Millipore radiometric kinase activity assay, CHK1 (h)
T1 construct: purchased Millipore (assay service)
T1 sequence (O14757 1-476): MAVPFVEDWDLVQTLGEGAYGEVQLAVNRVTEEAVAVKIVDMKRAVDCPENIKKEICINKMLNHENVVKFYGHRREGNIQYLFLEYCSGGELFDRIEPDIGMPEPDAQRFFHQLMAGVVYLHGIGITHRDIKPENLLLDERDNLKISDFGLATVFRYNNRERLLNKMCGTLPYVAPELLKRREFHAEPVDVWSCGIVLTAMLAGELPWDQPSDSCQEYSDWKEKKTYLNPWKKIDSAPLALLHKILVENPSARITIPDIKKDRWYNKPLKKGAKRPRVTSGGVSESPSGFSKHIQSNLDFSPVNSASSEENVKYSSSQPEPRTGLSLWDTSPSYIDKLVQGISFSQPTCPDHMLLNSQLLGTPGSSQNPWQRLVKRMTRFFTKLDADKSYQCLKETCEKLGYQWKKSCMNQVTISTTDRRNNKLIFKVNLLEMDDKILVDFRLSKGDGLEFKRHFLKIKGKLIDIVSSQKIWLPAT
Method: (§1) A commercial radiometric assay service (Millipore, Billerica, Mass.) was used to test the specificity and potency of peptides containing a coupled transduction domain and therapeutic domain, hereinafter “complete peptides”). In these assays, if the kinase is not inhibited by an inhibitor peptide, a positively charged substrate is phosphorylated with a radiolabeled phosphate group from an ATP.
(§2) In a final reaction volume of 25 μL, CHK1 (h) (5-10 mU) is incubated with 8 mM MOPS pH 7.0, 0.2 mM EDTA, 200 μM […] [SEQ ID NO: 53], 10 mM MgAcetate and [γ-^33P-ATP] (specific activity approx. 500 cpm/pmol, concentration as required). The reaction is initiated by the addition of the MgATP mix. After incubation for 40 minutes at room temperature, the reaction is stopped by the addition of 5 μL of a 3% phosphoric acid solution. 10 μL of the reaction is then spotted onto a P30 filtermat and washed three times for 5 minutes in 75 mM phosphoric acid and once in methanol prior to drying and scintillation counting.
(§3) IC50 values for inhibitor peptides were determined using Millipore's IC50Profiler Express service. The IC50 value was estimated from a 10-point curve of one-half log dilutions. For peptides tested for specificity, the concentration of the peptides that inhibited approximately 95% of MK2 activity was chosen to profile against a battery of kinases related to MK2, cell viability, or human disease from MilliporeKinaseProfiler service. In both assays, compounds were supplied in dimethylsulfoxide (DMSO). Every kinase activity measurement was conducted in duplicate.
(§4) Therapeutic inhibitor peptides were assayed for activity against human kinases related to MK2, cell viability, or human disease. The assays were performed using concentrations of therapeutic inhibitor peptides that yielded 2% to 8% of normal MK2 activity. Error is reported as the standard deviation between 2 samples, and “c” is rat AMPK whereas all other kinases used are human kinases.

[2] = molecular target: T2, Flt3 (Homo sapiens, UniProt P36888); test: Millipore radiometric kinase activity assay, Flt3 (h)
T2 construct: purchased Millipore (assay service)
T2 sequence (P36888 27-993): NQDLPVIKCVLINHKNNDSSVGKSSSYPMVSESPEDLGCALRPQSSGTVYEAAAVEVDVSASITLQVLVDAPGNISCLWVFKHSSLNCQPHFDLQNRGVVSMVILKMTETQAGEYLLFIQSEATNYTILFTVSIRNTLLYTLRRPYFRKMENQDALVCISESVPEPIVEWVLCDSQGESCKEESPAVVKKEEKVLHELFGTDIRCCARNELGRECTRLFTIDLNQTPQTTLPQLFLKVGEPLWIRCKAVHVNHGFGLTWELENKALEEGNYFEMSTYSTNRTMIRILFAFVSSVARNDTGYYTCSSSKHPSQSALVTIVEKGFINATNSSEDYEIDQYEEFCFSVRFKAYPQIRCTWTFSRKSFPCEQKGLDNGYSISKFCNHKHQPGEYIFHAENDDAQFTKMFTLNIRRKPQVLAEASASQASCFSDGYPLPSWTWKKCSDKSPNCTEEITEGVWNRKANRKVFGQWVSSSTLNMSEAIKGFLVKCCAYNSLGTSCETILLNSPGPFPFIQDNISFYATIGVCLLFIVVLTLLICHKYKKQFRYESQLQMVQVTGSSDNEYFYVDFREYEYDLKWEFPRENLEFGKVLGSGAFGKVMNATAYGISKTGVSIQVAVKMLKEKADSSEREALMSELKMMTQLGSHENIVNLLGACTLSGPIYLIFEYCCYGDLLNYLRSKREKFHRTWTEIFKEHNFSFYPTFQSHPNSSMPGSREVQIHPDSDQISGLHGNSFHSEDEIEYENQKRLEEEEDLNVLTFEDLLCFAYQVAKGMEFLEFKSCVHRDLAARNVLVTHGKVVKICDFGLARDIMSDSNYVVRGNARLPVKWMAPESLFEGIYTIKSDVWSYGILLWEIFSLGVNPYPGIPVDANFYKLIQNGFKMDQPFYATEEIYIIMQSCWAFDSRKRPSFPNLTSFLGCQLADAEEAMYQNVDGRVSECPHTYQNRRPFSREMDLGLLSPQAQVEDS
Method: as §1
as §2, with “Flt3” for “CHK1”, “50” for “200”, “48],” for “53],”
as §3, §4

[3] = molecular target: T3, MEK1 (Homo sapiens, UniProt Q02750); test: Millipore radiometric kinase activity assay, MEK1 (h)
T3 construct: purchased Millipore (radiometric assay service)
Method: as §1
The reaction is initiated by the addition of the MgATP. After incubation for 40 minutes at room temperature, 5 μL of this incubation mix is used to initiate a MAPK2 (m) assay.
as §3, §4

[4] = molecular target: T4, TrkA (Homo sapiens, UniProt P04629); test: Millipore radiometric kinase activity assay, TrkA (h)
T4 construct: purchased Millipore (radiometric assay service)
Method: as §1
as §2, with “TrkA” for “CHK1”, “250” for “200”, “56],” for “53],”
as §3, §4

T4 sequence (P04629 33-796): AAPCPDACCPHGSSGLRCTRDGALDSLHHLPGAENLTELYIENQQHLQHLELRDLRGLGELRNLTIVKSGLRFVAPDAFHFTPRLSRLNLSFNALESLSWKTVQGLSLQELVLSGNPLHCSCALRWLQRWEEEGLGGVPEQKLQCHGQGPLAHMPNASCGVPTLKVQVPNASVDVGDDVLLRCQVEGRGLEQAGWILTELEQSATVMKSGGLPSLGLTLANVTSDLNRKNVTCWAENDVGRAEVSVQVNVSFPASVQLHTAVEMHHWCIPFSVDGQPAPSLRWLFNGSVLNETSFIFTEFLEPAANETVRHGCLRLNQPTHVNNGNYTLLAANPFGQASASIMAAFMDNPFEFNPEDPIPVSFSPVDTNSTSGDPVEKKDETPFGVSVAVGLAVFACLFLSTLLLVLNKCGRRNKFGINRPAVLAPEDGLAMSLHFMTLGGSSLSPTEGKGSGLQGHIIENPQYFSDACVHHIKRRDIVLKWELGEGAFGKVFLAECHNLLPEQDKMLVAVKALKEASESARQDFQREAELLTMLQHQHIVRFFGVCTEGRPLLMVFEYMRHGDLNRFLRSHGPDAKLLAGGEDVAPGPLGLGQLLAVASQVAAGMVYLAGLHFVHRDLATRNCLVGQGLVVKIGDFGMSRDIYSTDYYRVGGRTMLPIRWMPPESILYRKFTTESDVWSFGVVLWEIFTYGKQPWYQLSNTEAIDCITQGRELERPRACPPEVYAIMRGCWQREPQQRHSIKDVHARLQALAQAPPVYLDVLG

Sequence: KAFAKLAARLYRKALARQLGVAA
- CHK1 Kinase Activity (%) (+SD %) ([1]; peptide 100 μM): 68 (0) %
- Flt3 Kinase Activity (%) (+SD %) ([2]; peptide 100 μM): 20 (3) %
- MEK1 Kinase Activity (%) (+SD %) ([3]; peptide 100 μM): 66 (0) %
- TrkA Kinase Activity (%) (+SD %) ([4]; peptide 100 μM): 16 (2) %

Sequence: WLRRIKAWLRRIKALNRQLGVAA
- CHK1 Kinase Activity (%) (+SD %) ([1]; peptide 30 μM): 31 (5) %
- CHK1 Kinase Activity (%) (+SD %) ([1]; peptide 100 μM): 54 (6) %
- Flt3 Kinase Activity (%) (+SD %) ([2]; peptide 30 μM): 38 (1) %
- Flt3 Kinase Activity (%) (+SD %) ([2]; peptide 100 μM): 14 (0) %
- MEK1 Kinase Activity (%) (+SD %) ([3]; peptide 30 μM): 14 (2) %
- MEK1 Kinase Activity (%) (+SD %) ([3]; peptide 100 μM): 68 (2) %
- TrkA Kinase Activity (%) (+SD %) ([4]; peptide 30 μM): 6 (1) %
- TrkA Kinase Activity (%) (+SD %) ([4]; peptide 100 μM): 17 (2) %
